In the supplement of paper PMC10126150:
± gives the standard deviation of the averaged measurements.

System: ATP
Assay: switch fluorescence ratio, 500 uM ATP over buffer (Cy3 cluster intensity, sum of 5 cycles each) (fold (ratio)); higher = stronger signal-on switching upon ATP binding; sequences stand for … in TCGTCGGCAGCGTCAGATGTGTATAAGAGACAGTTTTTTTTTTTTTTTTTTTTTTTTT…TC
Conditions: aptamer strand: ATP DNA aptamer (quencher-CACCTGGGGGAGTATTGCGGAGGAAGG + anchor), 100 nM annealed; ATP concentration: 500 uM
Method in brief: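 Five buffer/ATP imaging cycles were run on Cy3-labelled switching-strand clusters on a modified Illumina MiSeq flow-cell, with NaOH stripping and re-annealing between cycles. In each cycle, clusters annealed to 100 nM quencher-labelled ATP aptamer were imaged in selection buffer, then after 15 min with 500 uM ATP at 22 °C. Per cluster, the fluorescence ratio is summed target-cycle over summed buffer-cycle Cy3 intensity, averaged per switch-domain sequence. Only clusters within 100-1000 RFU were kept.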
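Further: ATP exposure 15 min at 22 °C before imaging.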

TTGGGCTATT
switch fluorescence ratio: 1.01 ± 0.015

TTGGGGAATA
switch fluorescence ratio: 1.05 ± 0.035

TTGGGGAGGA
switch fluorescence ratio: 0.998 ± 0.044

TTGGGGAGTA
switch fluorescence ratio: 0.9929 ± 0.0089

TTGGGGCACG
switch fluorescence ratio: 0.99 ± 0.02

TTGGGGCACT
switch fluorescence ratio: 0.985 ± 0.016

TTGGGGCGGA
switch fluorescence ratio: 0.9923 ± 0.0095

TTGGGGCGGT
switch fluorescence ratio: 1.05 ± 0.15

TTGGGGCGTG
switch fluorescence ratio: 0.971 ± 0.057

TTGGGGGCTA
switch fluorescence ratio: 1 ± 0.04

TTGGGGGTAG
switch fluorescence ratio: 1.04 ± 0.13

TTGGGGGTAT
switch fluorescence ratio: 1.05 ± 0.068

TTGGGGGTGG
switch fluorescence ratio: 1.01 ± 0.04

TTGGGGTCTG
switch fluorescence ratio: 1.02 ± 0.023

TTGGGGTGCG
switch fluorescence ratio: 0.995 ± 0.011

TTGGGGTGGC
switch fluorescence ratio: 0.965 ± 0.061

TTGGGGTGGT
switch fluorescence ratio: 0.993 ± 0.032

TTGGGGTGTC
switch fluorescence ratio: 1.01 ± 0.021

TTGGGGTTGT
switch fluorescence ratio: 1.03 ± 0.12

TTGGGGTTTT
switch fluorescence ratio: 1.01 ± 0.037

TTGGGTACGG
switch fluorescence ratio: 1.03 ± 0.016

TTGGGTAGGC
switch fluorescence ratio: 0.985 ± 0.022

TTGGGTCGAT
switch fluorescence ratio: 0.985 ± 0.024

TTGGGTCGGC
switch fluorescence ratio: 1.0032 ± 0.001

TTGGGTGCCT
switch fluorescence ratio: 0.999 ± 0.028

TTGGGTGCTT
switch fluorescence ratio: 1.02 ± 0.041

TTGGGTGGTG
switch fluorescence ratio: 0.983 ± 0.033

TTGGGTGGTT
switch fluorescence ratio: 0.9815 ± 0.0026

TTGGGTTGAG
switch fluorescence ratio: 0.999 ± 0.016

TTGGGTTGGG
switch fluorescence ratio: 0.987 ± 0.018

TTGGGTTTTG
switch fluorescence ratio: 0.994 ± 0.031

TTGGTAAAAA
switch fluorescence ratio: 1.25 ± 0.41

TTGGTAAAAG
switch fluorescence ratio: 1.02 ± 0.033

TTGGTAAAAT
switch fluorescence ratio: 0.978 ± 0.041

TTGGTAAAGG
switch fluorescence ratio: 0.999 ± 0.048

TTGGTATATT
switch fluorescence ratio: 1.02 ± 0.016

TTGGTCGCTG
switch fluorescence ratio: 1.01 ± 0.011

TTGGTCGTAC
switch fluorescence ratio: 1.03 ± 0.015

TTGGTCTGGG
switch fluorescence ratio: 1.01 ± 0.064

TTGGTGACCG
switch fluorescence ratio: 1.03 ± 0.036

TTGGTGAGAG
switch fluorescence ratio: 0.997 ± 0.019

TTGGTGCGGG
switch fluorescence ratio: 0.98 ± 0.044

TTGGTGGAAT
switch fluorescence ratio: 1.06 ± 0.093

TTGGTGGGGT
switch fluorescence ratio: 1 ± 0.033

TTGGTGGTT
switch fluorescence ratio: 0.9809 ± 0.0089

TTGGTGTGGG
switch fluorescence ratio: 0.986 ± 0.045

TTGGTTACAG
switch fluorescence ratio: 0.978 ± 0.031

TTGGTTAGTT
switch fluorescence ratio: 0.981 ± 0.027

TTGGTTCGC
switch fluorescence ratio: 0.994 ± 0.094

TTGGTTGGAC
switch fluorescence ratio: 1.028 ± 0.0092

TTGGTTGGCT
switch fluorescence ratio: 1.01 ± 0.018

TTGGTTGGTT
switch fluorescence ratio: 0.978 ± 0.019

TTGGTTGTTT
switch fluorescence ratio: 1 ± 0.052

TTGGTTTAAA
switch fluorescence ratio: 1 ± 0.022

TTGGTTTAGA
switch fluorescence ratio: 0.979 ± 0.028

TTGGTTTAGT
switch fluorescence ratio: 1.01 ± 0.025

TTGGTTTCGA
switch fluorescence ratio: 0.98 ± 0.013

TTGGTTTGGT
switch fluorescence ratio: 0.988 ± 0.03

TTGGTTTGTC
switch fluorescence ratio: 0.99 ± 0.037

TTGGTTTTCC
switch fluorescence ratio: 1.01 ± 0.028

TTGGTTTTCT
switch fluorescence ratio: 0.994 ± 0.045

TTGGTTTTTC
switch fluorescence ratio: 1.01 ± 0.025

TTGTAAATGC
switch fluorescence ratio: 1.26 ± 0.29

TTGTAACATT
switch fluorescence ratio: 1.015 ± 0.0014

TTGTAATTGC
switch fluorescence ratio: 1.29 ± 0.34

TTGTACCAAA
switch fluorescence ratio: 0.992 ± 0.047

TTGTAGACGT
switch fluorescence ratio: 1.02 ± 0.0093

TTGTAGGACC
switch fluorescence ratio: 1 ± 0.056

TTGTAGGAGC
switch fluorescence ratio: 0.965 ± 0.14

TTGTAGGGTT
switch fluorescence ratio: 1.02 ± 0.024

TTGTAGGTTT
switch fluorescence ratio: 1.58 ± 0.79

TTGTATAAGA
switch fluorescence ratio: 1.003 ± 0.0088

TTGTATATGC
switch fluorescence ratio: 1.16 ± 0.23

TTGTATGGGT
switch fluorescence ratio: 0.98 ± 0.019

TTGTATTGGA
switch fluorescence ratio: 0.995 ± 0.015

TTGTCCCTTT
switch fluorescence ratio: 0.9848 ± 0.0074

TTGTCCGCGG
switch fluorescence ratio: 1.06 ± 0.091

TTGTCGGGCC
switch fluorescence ratio: 0.964 ± 0.039

TTGTCGGTCT
switch fluorescence ratio: 0.972 ± 0.018

TTGTCTATGA
switch fluorescence ratio: 0.986 ± 0.028

TTGTCTTTTT
switch fluorescence ratio: 0.998 ± 0.015

TTGTGCAAAT
switch fluorescence ratio: 1.009 ± 0.006

TTGTGCTGGT
switch fluorescence ratio: 1 ± 0.033

TTGTGCTGTA
switch fluorescence ratio: 1.02 ± 0.013

TTGTGCTTAA
switch fluorescence ratio: 0.989 ± 0.052

TTGTGCTTGT
switch fluorescence ratio: 0.983 ± 0.019

TTGTGGAATG
switch fluorescence ratio: 1.015 ± 0.0094

TTGTGGCCAT
switch fluorescence ratio: 0.974 ± 0.022

TTGTGGCGTG
switch fluorescence ratio: 1 ± 0.034

TTGTGGGGCA
switch fluorescence ratio: 1.02 ± 0.021

TTGTGGGGTG
switch fluorescence ratio: 1.01 ± 0.044

TTGTGGTTTC
switch fluorescence ratio: 1.01 ± 0.017

TTGTGTAGGC
switch fluorescence ratio: 0.984 ± 0.025

TTGTGTCTTT
switch fluorescence ratio: 0.986 ± 0.017

TTGTGTGTAT
switch fluorescence ratio: 0.992 ± 0.017

TTGTGTTCTT
switch fluorescence ratio: 1.01 ± 0.026

TTGTGTTTAG
switch fluorescence ratio: 1.016 ± 0.0044

TTGTGTTTGG
switch fluorescence ratio: 0.992 ± 0.014

TTGTTAACTT
switch fluorescence ratio: 0.985 ± 0.017

TTGTTAGATG
switch fluorescence ratio: 1.011 ± 0.0066

TTGTTAGGAA
switch fluorescence ratio: 1.01 ± 0.02

TTGTTAGTT
switch fluorescence ratio: 1.02 ± 0.03

TTGTTATCCG
switch fluorescence ratio: 0.964 ± 0.048

TTGTTATGAT
switch fluorescence ratio: 1.01 ± 0.018

TTGTTATTCG
switch fluorescence ratio: 1.01 ± 0.087

TTGTTCCAGC
switch fluorescence ratio: 0.985 ± 0.047

TTGTTCCCGT
switch fluorescence ratio: 0.9839 ± 0.0013

TTGTTCCTTG
switch fluorescence ratio: 1.01 ± 0.022

TTGTTCGCCT
switch fluorescence ratio: 1.02 ± 0.011

TTGTTCTCGC
switch fluorescence ratio: 1.02 ± 0.048

TTGTTGAAAT
switch fluorescence ratio: 1.03 ± 0.074

TTGTTGAGGA
switch fluorescence ratio: 1.01 ± 0.028

TTGTTGAGGC
switch fluorescence ratio: 1.06 ± 0.1

TTGTTGATTA
switch fluorescence ratio: 0.9935 ± 0.0089

TTGTTGCAAG
switch fluorescence ratio: 1.013 ± 0.0079

TTGTTGCTTG
switch fluorescence ratio: 1.02 ± 0.028

TTGTTGGCGG
switch fluorescence ratio: 0.994 ± 0.025

TTGTTGGGCA
switch fluorescence ratio: 1.01 ± 0.032

TTGTTGGTAG
switch fluorescence ratio: 1.03 ± 0.031

TTGTTGTGGT
switch fluorescence ratio: 0.987 ± 0.032

TTGTTTAATT
switch fluorescence ratio: 0.979 ± 0.022

TTGTTTATAT
switch fluorescence ratio: 0.9853 ± 0.0053

TTGTTTATTT
switch fluorescence ratio: 1.02 ± 0.032

TTGTTTCATG
switch fluorescence ratio: 1.01 ± 0.025

TTGTTTCGGG
switch fluorescence ratio: 0.978 ± 0.018

TTGTTTGCAA
switch fluorescence ratio: 1.52 ± 0.74

TTGTTTGGGG
switch fluorescence ratio: 0.998 ± 0.026

TTGTTTGTGA
switch fluorescence ratio: 0.992 ± 0.011

TTGTTTGTTG
switch fluorescence ratio: 0.994 ± 0.019

TTGTTTTAC
switch fluorescence ratio: 1.05 ± 0.067

TTGTTTTACT
switch fluorescence ratio: 1.027 ± 0.0056

TTGTTTTAGG
switch fluorescence ratio: 0.987 ± 0.047

TTGTTTTCTG
switch fluorescence ratio: 1.02 ± 0.047

TTGTTTTGAA
switch fluorescence ratio: 1.006 ± 0.0053

TTGTTTTGTT
switch fluorescence ratio: 1.04 ± 0.1

TTGTTTTTAC
switch fluorescence ratio: 1.07 ± 0.052

TTGTTTTTGA
switch fluorescence ratio: 1.05 ± 0.067

TTTAAAACAG
switch fluorescence ratio: 1.018 ± 0.0079

TTTAAAAGAA
switch fluorescence ratio: 0.995 ± 0.039

TTTAAAATAT
switch fluorescence ratio: 0.998 ± 0.046

TTTAAAGAGG
switch fluorescence ratio: 0.9813 ± 0.0042

TTTAAAGATC
switch fluorescence ratio: 1 ± 0.021

TTTAAATAT
switch fluorescence ratio: 1.03 ± 0.086

TTTAAATATG
switch fluorescence ratio: 0.9942 ± 0.0073

TTTAAATCTC
switch fluorescence ratio: 0.963 ± 0.014

TTTAAATTAA
switch fluorescence ratio: 0.9938 ± 0.0026

TTTAACAGTA
switch fluorescence ratio: 1.04 ± 0.044

TTTAACATAT
switch fluorescence ratio: 1.022 ± 0.004

TTTAACGATA
switch fluorescence ratio: 1.07 ± 0.015

TTTAACGATC
switch fluorescence ratio: 1.01 ± 0.035

TTTAACGGTG
switch fluorescence ratio: 1.02 ± 0.027

TTTAACTGG
switch fluorescence ratio: 1.03 ± 0.036

TTTAAGATTT
switch fluorescence ratio: 1.01 ± 0.03

TTTAAGCGTT
switch fluorescence ratio: 1.054 ± 0.0066

TTTAAGCTAA
switch fluorescence ratio: 1.13 ± 0.23

TTTAAGCTGT
switch fluorescence ratio: 0.978 ± 0.049

TTTAAGGATA
switch fluorescence ratio: 0.9872 ± 0.0055

TTTAAGGCCT
switch fluorescence ratio: 1 ± 0.021

TTTAAGGCTC
switch fluorescence ratio: 0.994 ± 0.032

TTTAAGGGG
switch fluorescence ratio: 1.02 ± 0.051

TTTAAGGGGT
switch fluorescence ratio: 0.991 ± 0.051

TTTAAGTAGT
switch fluorescence ratio: 1.01 ± 0.028

TTTAAGTTTC
switch fluorescence ratio: 1 ± 0.025

TTTAATACGC
switch fluorescence ratio: 1.38 ± 0.26

TTTAATATTA
switch fluorescence ratio: 0.986 ± 0.015

TTTAATCAAA
switch fluorescence ratio: 0.988 ± 0.014

TTTAATGGTT
switch fluorescence ratio: 1.02 ± 0.039

TTTAATGTCC
switch fluorescence ratio: 0.976 ± 0.07

TTTAATTGCA
switch fluorescence ratio: 0.988 ± 0.038

TTTAATTGGG
switch fluorescence ratio: 0.983 ± 0.039

TTTAATTTGT
switch fluorescence ratio: 1 ± 0.019

TTTACAAAGT
switch fluorescence ratio: 0.994 ± 0.049

TTTACCCACT
switch fluorescence ratio: 1.46 ± 0.073

TTTACCCCAT
switch fluorescence ratio: 1.05 ± 0.032

TTTACCCTAT
switch fluorescence ratio: 1.06 ± 0.015

TTTACCTCGA
switch fluorescence ratio: 1.027 ± 0.0069

TTTACGGGGC
switch fluorescence ratio: 1 ± 0.017

TTTACGGTGA
switch fluorescence ratio: 1.02 ± 0.043

TTTACGTCAG
switch fluorescence ratio: 1.013 ± 0.0034

TTTACTAGAT
switch fluorescence ratio: 1.05 ± 0.012

TTTACTATAT
switch fluorescence ratio: 1.04 ± 0.032

TTTACTATGG
switch fluorescence ratio: 0.9984 ± 0.0023

TTTACTTAGT
switch fluorescence ratio: 1.02 ± 0.018

TTTACTTGCG
switch fluorescence ratio: 0.9759 ± 0.0038

TTTACTTTGC
switch fluorescence ratio: 1.48 ± 0.69

TTTACTTTTT
switch fluorescence ratio: 1.01 ± 0.027

TTTAGAAAAC
switch fluorescence ratio: 0.984 ± 0.037

TTTAGAAAAT
switch fluorescence ratio: 1.01 ± 0.0098

TTTAGAAATC
switch fluorescence ratio: 1.08 ± 0.16

TTTAGAAGGC
switch fluorescence ratio: 1.08 ± 0.11

TTTAGAAGGG
switch fluorescence ratio: 0.979 ± 0.051

TTTAGAATGT
switch fluorescence ratio: 0.994 ± 0.019

TTTAGACCAG
switch fluorescence ratio: 1.01 ± 0.059

TTTAGACCCT
switch fluorescence ratio: 1.013 ± 0.0046

TTTAGAGAGC
switch fluorescence ratio: 0.987 ± 0.051

TTTAGAGGAA
switch fluorescence ratio: 0.977 ± 0.032

TTTAGAGTTC
switch fluorescence ratio: 0.997 ± 0.021

TTTAGATTTG
switch fluorescence ratio: 1.024 ± 0.0048

TTTAGCACAG
switch fluorescence ratio: 1.06 ± 0.017

TTTAGCAGCT
switch fluorescence ratio: 0.993 ± 0.014
